In article PMC7382241 (2020):
Values joined by “and” are separate entries in the source; they are usually repeats but may differ in a detail not shown here. Equal entries are not always repeated. Blank lines part the entries; values can stand above or below the binder they belong to.

Molecular target: N-terminal AVI-tagged and biotinylated FKBP12 (human, UniProt P62942 1-108, biotin (biotinylated AVI tag))
Assay: SPR

N-terminal AVI-tagged and biotinylated FKBP12, sequence (P62942 whole entry): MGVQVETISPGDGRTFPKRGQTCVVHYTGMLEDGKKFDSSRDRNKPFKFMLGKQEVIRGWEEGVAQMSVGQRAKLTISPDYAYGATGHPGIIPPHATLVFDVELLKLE

Kd: 37.6 nM and 23.4 nM and 57.7 nM
B1: recombinant CEP250_(29.2) (residues 1,981 to 2,281) (domain or fragment)
chain: EQHLLEQAELSRSLEASTATLQASLDACQAHSRQLEEALRIQEGEIQDQDLRYQEDVQQLQQALAQRDEELRHQQEREQLLEKSLAQRVQENMIQEKQNLGQEREEEEIRGLHQSVRELQLTLAQKEQEILELRETQQRNNLEALPHSHKTSPMEEQSLKLDSLEPRLQRELERLQAALRQTEAREIEWREKAQDLALSLAQTKASVSSLQEVAMFLQASVLERDSEQQRLQDELELTRRALEKERLHSPGATSTAELGSRGEQGVQLGEVSGVEAEPSPDGMEKQSWRQRLEHLQQAVAR

Kd: 32.5 nM and 32.7 nM and 41.2 nM
B2: CEP250_(11.4) (residues 2,134 to 2,231) (domain or fragment)
chain: MEEQSLKLDSLEPRLQRELERLQAALRQTEAREIEWREKAQDLALSLAQTKASVSSLQEVAMFLQASVLERDSEQQRLQDELELTRRALEKERLHSPG
